In article PMC7413259 one finds Kd data, which are given here for 1 substance.

What all share (details): 5' triphosphate, B1: 50 mM Tris-HCl pH 8.0, 150 mM NaCl, 1 mM MgCl2, 2 mM beta-mercaptoethanol, 10% glycerol, 20 C, B2: same with 100 mM NaCl
In series [1] the target is T1, ZIKV NS5 MTase domain WT (Zika virus) (UniProt A0A142I5B9). Nature of the series: fluorescence titration.
The target of series [2] is T1, ZIKV NS5 MTase domain WT (Zika virus). Description: fluorescence anisotropy.
Series [3] shares this target. Nature of the series: fluorescence titration. The source holds these as a separate data set.
The target of series [4] is ZIKV NS5 WT (Zika virus) (UniProt A0A024B7W1). Description: fluorescence titration.
For series [5], the system named is ZIKV NS5 RdRp domain (Zika virus). Nature of the series: fluorescence titration.

Consider ZIKV SLA (SLA-F), for which the equilibrium dissociation constant (Kd) in series [1] stood at 400 nM; in series [2], 310 nM; in series [3], 590 nM; in series [4], 280 nM; in series [5] it was 530 nM.
